# Measured values published in article PMC4933562, “Bile salt receptor complex activates a pathogenic type III secretion system” (eLife, 2016).
# pKd: −log10 of the molar value.
# Legend:
# [1] = biological target: N-terminal His-tagged VtrC periplasmic domain (aa 31-161) (Vibrio parahaemolyticus); experiment: SEC
# VtrC (VPA1333) = biological target: T1, VtrC (VPA1333) (Vibrio parahaemolyticus, UniProt Q87GI3+Q87GI4); experiment: ITC (n = […]) and […] Å co-crystal structure; assay type: binding
# T1 construct: periplasmic domains: VtrC aa 31–161 (N-terminal His-tagged) co-expressed with VtrA aa 161–253; with VtrA (VPA1332), periplasmic domain aa 161–253, obligate 1:1 heterodimer
molecule,measurement,setting,value
"VtrA periplasmic domain (aa 161-253), co-expressed with VtrC (domain or fragment)",stoichiometry N (VtrA per VtrC),[1],1
"C[C@H](CCC(=O)NCCS(=O)(=O)O)[C@H]1CC[C@H]2[C@@H]3CC[C@@H]4C[C@H](O)CC[C@]4(C)[C@H]3C[C@H](O)[C@]12C [TDC, taurodeoxycholate]",pKd,VtrC (VPA1333),6.50
